Assay results as given in patent publication US20200199207A1.
Where a chain is given by its changes, count along the chain named.

B1: h37D5 (antibody, V domains shown)
VH: EEQLVESGGRLLRPGESLSLSCAAVGFNFGDFGMAWVRQPPGKGLEWVAGINWSGHSTGFVDSMKGRLTISRDSAKSSLFLQMNSLRGEDTAVYYCARVGRLCSGDICDSMGAFDLWGQGTMVTVSS
VL: DIQMTQSPSTLSASIGDRVTITCRASQTIDNWLAWYQQRPGKAPKLLIYQASSLQSGVSSRFRGSGSGTEFTLTITSLQPDDFATYYCQKSNGYSRTFGQGTKVEIK
B2: hm12G10 (antibody, V domains shown)
VH: EVQLLESGGRLLRPGGSLSLSCVASGFYFGDFGMSWVRQVPGKGLEWVSGIDWSGRSTGYVDSMKGRLTISRDNDKSSLYLQMNDLRGEDTAVYYCARVGRLCSGDSCDSMGAFDLWGQGTMVTVSS
VL: B1 VL with M4L, R18S, T28N, R39K, K45R, Q50K, Q55G, R61K, S67F, E105D
B3: h12G10 (antibody, human IgG1, V domains shown)
VH: B2 VH
VL: B1 VL with M4L, R18S, T28N, R39K, K45R, Q50K, Q55G, R61K, S67F, E105D
B4: hm37D5 (antibody, V domains shown)
VH: B1 VH
VL: B1 VL
B5: h32B10 (antibody, V domains shown)
VH: QVQLVQSGAEVKKPGASVKVSCRASGYIFRNFDINWVRQATGQGLEWMGWMSPKSGDTGYAQKFQGRVTMTRDTSINTAYMELSSLTSEDSAVYYCARGVDGTNWGQGTRVTVSS
VL: DIVMTQSPDSLGVSLGERATISCKSSQSILDNSNNKNFIAWFQQKPGQPPKLLIYWASARESGVPDRFSGSGSGTEFTLTINSLQAEDVAVYYCYQYYSTPHTFGQGTKLDLR
B6: h7G6 (antibody, V domains shown)
VH: QVQLVESGGGVVQPGRSLRLSCAASGIAFNDYTMHWVRRSPDKGLEWVAAISYGGTNKYYADSVKGRFTISRDSSKNTLFLQMDSLRVEDTAVYYCARDSGYRSLLHWGQGTLVTVSS
VL: EIVLTQSPLSLPVTPGEPASISCRSSQSLVHRNGYNYLDWYLQKPGQSPQLLIYMASKRASGVPDRFSGSGSGTEFTLKISRVEAEDVGIYYCMQALQTWTFGQGTKVEVN
B7: h2F8 (antibody, V domains shown)
VH: EVQLVESGGGLVKPGGSLRLSCAASGFIFSDYNMNWVRQAPGKGLEWVSSITRSSRTIYYADSVKGRFTISRDNAKNSLHLQMNSLRDADTAVYYCAREDFDVSTGPYYMDVWGNGTTVIVSS
VL: EIVLTQSPGTLSLSPGERATLSCRASQSVSNMFLVWYQQKPGQAPRLLMYGASTRATDIPDRFSGSGSGTDFTLTISRLEPEDFAVYYCQQNGNSPYTFGQGTKLEIK

These binders were tested against natural peanut extract (assay: ELISA, antigen-coated plate).

EC50 | Binder
6.5 ng/mL | B1
8.5 ng/mL | B2
8.1 ng/mL | B3
7.1 ng/mL | B4
4.8 ng/mL | B5
2.8 ng/mL | B6
2.8 ng/mL | B7
